The target of data set [1] is T1, HIF-1α (construct not given) (UniProt Q16665 1-350, limits assumed).
T1 construct: also called HIF-1 ELISA
Kind of data set: HIF-1 ELISA, inhibition of HIF-1α/HIF-1β dimerisation. On the procedure: (§1) 25 μL of His-tagged HIF-α protein (either Trx-1α, Trx-2α, 1α PASB, or 2α PASB) at 0.1 μM in HIF assay buffer were added to individual wells of a Pierce Ni²⁺-coated 96-well plate (Thermo) in triplicate. The plate was rocked gently at room temperature for 1 hr, before washing with 3×200 μL assay buffer (5 min incubation per wash). 25 μL of compounds and/or DMSO at the stated concentrations were added to the plate and allowed to equilibrate for 30 min prior to the addition of 25 μL of GST-1β at 0.2 μM in assay buffer for 1 hr. For conditions in which no compound or DMSO were used, GST-1β was added as a 0.1 μM solution. After incubation with GST-1β, the wells were washed with 3×200 μL assay buffer then 1×200 μL PBS. The wells were then incubated with 100 μL mouse α-GST antibody (Thermo, MS-707-P) at a 1/1000 dilution in PBS supplemented with 0.1% Tween-20 (PBST) and 2% non-fat powdered milk (Marvel) for 1 hr, followed by 3×200 μL washed with PBS. 100 μL of secondary HRP-conjugated α-mouse antibody (GE Healthcare) was added at a 1/6000 dilution in 2% milk/PBST for 1 hr, then washed with 3×200 μL PBS. Wells were incubated with 100 μL of 1-Step Ultra TMB-ELISA solution (Thermo) until a blue colour developed (typically 10-15 min) and the reaction was stopped by the addition of 100 μL of a ⅕ dilution of conc. H₂SO₄, which turned the solution yellow. Absorbance was read at 450 nm using a Tecan Infinite M200 Pro plate reader. Data were fitted and IC₅₀ values determined by non-linear regression using GraphPad Prism 6.

Data set [2] has as its target T2, 1α PASB (HIF-1α PASB domain, 238-349) (UniProt Q16665 238-349, labelled with NT-647-NHS dye in MST).
T2 construct: range 238-349; not shown: His6 tag of vector pET28, then Met
Kind of data set: MST, HIF-1α PASB domain.

Data set [3] deals with T3, HIF-2α (construct not given) (UniProt Q99814 1-360, limits assumed).
T3 construct: also called HIF-2 ELISA
T3 sequence (Q99814 1-360 limits assumed): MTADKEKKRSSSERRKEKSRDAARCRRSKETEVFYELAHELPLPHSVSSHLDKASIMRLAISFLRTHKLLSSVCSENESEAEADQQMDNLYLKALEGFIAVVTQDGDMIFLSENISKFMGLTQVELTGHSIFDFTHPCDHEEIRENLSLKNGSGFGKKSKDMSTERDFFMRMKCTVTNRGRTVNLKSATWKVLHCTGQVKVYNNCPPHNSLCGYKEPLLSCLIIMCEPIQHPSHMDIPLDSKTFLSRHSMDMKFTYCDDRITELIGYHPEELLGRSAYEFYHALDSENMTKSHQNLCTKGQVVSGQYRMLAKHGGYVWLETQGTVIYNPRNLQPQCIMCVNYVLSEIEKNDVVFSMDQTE
Nature of the data set: HIF-2 ELISA, inhibition of HIF-2α/HIF-1β dimerisation. As to the method:
as §1

Data set [4] addresses T4, 2α PASB (HIF-2α PASB domain, 240-350) (UniProt Q99814 240-350, labelled with NT-647-NHS dye in MST; 15N (and 13C 15N) labelled in NMR).
T4 construct: range 240-350; also called PAS B domain of HIF-2α; not shown: His6 tag of vector pET28, then Met
Kind of data set: MST, HIF-2α PASB domain.

Data set [5] concerns the target T3, HIF-2α (construct not stated at the …). Kind of data set: HIF-2 ELISA, inhibition of HIF-2α/HIF-1β dimerisation. This is another data set of the same source.
Data set [6] addresses T4, 2α PASB (HIF-2α PASB domain, 240-350). Kind of data set: MST, peptide titrated into labelled PAS-B domain of HIF-2α.
Data set [7] deals with T5, 1β PASB (HIF-1β PASB domain, 356-474) (UniProt P27540 356-474).
T5 construct: range 356-474; not shown: His6 tag of vector pET28
T5 sequence (P27540 356-474): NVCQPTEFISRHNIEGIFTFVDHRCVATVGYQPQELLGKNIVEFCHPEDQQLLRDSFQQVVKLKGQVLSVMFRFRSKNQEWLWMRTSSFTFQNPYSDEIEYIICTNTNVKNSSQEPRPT
Kind of data set: thermal shift assay, 1 mM peptide. As to the method:
(§2) Thermal denaturation of HIF proteins was performed in 20 μL reactions in triplicate using a Bio-Rad CFX Connect Real-Time System. Proteins were used at either 5 μM (Trx-1α, Trx-2α and GST-1β) or 15 μM (His-tagged PASB domains) in HIF assay buffer, with 10 mM DTT and SYPRO orange dye (Life Technologies) at a final concentration of 8×(relative to 5000×stock), and supplemented with either DMSO or compound dissolved in DMSO at the stated concentrations. The reaction plate was assembled on ice, then transferred to the pre-chilled thermal cycler, held at 10° C. for 5 min (heated lid, 105° C.), then the temperature ramped to 95° C. Fluorescence was recorded at 0.5° C. increments, holding for 5 sec at each temperature. Data were plotted using GraphPad Prism 6, and melting temperatures calculated using the first derivative method in which the peak (i.e. the steepest transition between data points) represents the point at which 50% of the protein sample is denatured. Errors are quoted as the inherent error associated with the first derivative of the data, i.e. ±0.25° C. for Tₘ values and ±0.5° C. for ΔTₘ values.

In data set [8] the target is T6, Trx-1α (thioredoxin-tagged HIF-1α 1-350, bHLH-PASA-PASB) (UniProt Q16665 1-350).
T6 construct: range 1-350; not shown: Thioredoxin-His6 tag of vector pET32
Kind of data set: thermal shift assay, 1 mM peptide. On the procedure: as §2

Data set [9] addresses T2, 1α PASB (HIF-1α PASB domain, 238-349). Kind of data set: competition ELISA: 1α PASB on Ni plate, peptide titrated, blocked partner GST-1β; the value stands in the panel without a name, the ELISA fits give IC50; the fall is only partial. As to the method:
as §1, with “Wells were incubated with 100 μL of 1-Step Ultra TMB-ELISA solution (Thermo) until a blue colour developed (typically 10-15 min) and the reaction was stopped by the addition of 100 μL of a ⅕ dilution of conc. H₂SO₄, which turned the solution yellow.” left out

For data set [10] the target is unchanged. Nature of the data set: MST, peptide titrated into labelled PAS-B domain of HIF-1α.

Starred links: 1 amine or outer side, 2 acyl side, 3 side chain; linkers in the order of their positions; H or OH if unused. Non-standard residues stand in square brackets, D forms with d. Tyr(Me) = 4-methoxyphenylalanine (O-methyl-tyrosine), COc1ccc(C[C@H](N[*:1])C(=O)[*:2])cc1; FITC‑maleimide = fluorescein isothiocyanate-maleimide label on the cysteine; Tyr(3-NO2) = N[C@@H](Cc1ccc(O)c([N+](=O)[O-])c1)C(=O)O; Phe(4-NO2) = N[C@@H](Cc1ccc([N+](=O)[O-])cc1)C(=O)O; Phe(4-CN) = N#Cc1ccc(C[C@H](N)C(=O)O)cc1; Phe(4-Cl) = N[C@@H](Cc1ccc(Cl)cc1)C(=O)O; Phe(4-F) = N[C@@H](Cc1ccc(F)cc1)C(=O)O; Phe(4-Me) = Cc1ccc(C[C@H](N)C(=O)O)cc1; Cha = N[C@@H](CC1CCCCC1)C(=O)O; Pal = not defined here

T4 sequence (Q99814 240-350): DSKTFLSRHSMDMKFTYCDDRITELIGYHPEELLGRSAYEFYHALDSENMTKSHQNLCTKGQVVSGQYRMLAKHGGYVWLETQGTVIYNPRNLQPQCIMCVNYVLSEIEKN

Regarding cyclo(CRLLI[Phe(4-F)]) (also called CRLLIX where X = 4-F-F) [CRLLI(4-F-F)], the results for the IC50 in data set [1] and in [3] were 37.5 µM and 11.5 µM, respectively. For the same molecule, the Kd worked out at 6.84 µM in [2] and 7.41 µM in data set [4].

For the molecule cyclo(C(FITC‑maleimide)RLLIF) [FITC-CRLLIF (SEQ ID NO 3)], in data set [5], the “Activity as measured by a HIF-2 ELISA” value worked out at 0.47 µM.

For cyclo(CRLLI[Pal]) (not fully specified; printed as CRLLI(Pal); reading uncertain, also called CRLLIX where X = Pal) [CRLLI(Pal)], the figures for the IC50 in data set [1] and in [3] were 294 µM and 212 µM, respectively. The Kd in data set [2] is 69.2 µM; in data set [4], 45.3 µM.

B1: CRLLI(3-NO2-Y) (peptide)
peptide: cyclo(CRLLI[Tyr(3-NO2)])
SMILES: CC[C@H](C)[C@@H]1NC(=O)[C@H](CC(C)C)NC(=O)[C@H](CC(C)C)NC(=O)[C@H](CCCNC(=N)N)NC(=O)[C@H](CS)NC(=O)[C@H](Cc2ccc(O)c([N+](=O)[O-])c2)NC1=O
notes: also called CRLLIX where X = 3-NO2-Y
B1: the values for the IC50 in [1] and in data set [3] were 19.5 µM and 22.7 µM, respectively. Besides, the Kd in data set [2] amounted to 90.7 µM; in data set [4], 49 µM.

For cyclo(CRLLI[Phe(4-Cl)]) (also called CRLLIX where X = 4-Cl-F) [CRLLI(4-Cl-F)], the figures for the IC50 in data set [1] and in data set [3] were 13.2 µM and 4.88 µM, respectively. In addition, the equilibrium dissociation constant (Kd) in data set [2] stood at 2.8 µM; in data set [6] it was 4.2 µM; in data set [4] it was 4.15 µM.

cyclo(CRLLI[Phe(4-NO2)]) (also called CRLLIX where X = 4-NO2-F) [CRLLI(4-NO2-F)]: the IC50 in data set [1] was 27.8 µM; in data set [3], 12 µM. Further, the Kd was determined as 3.73 µM in [2] and 5.76 µM in [4].

Consider SGWEMIQRR (cyclic peptide (first amino acid joined to the last), One of the 4 cyclic peptide hits) [cyclo-SGWEMIQRR (SEQ ID NO 5)], for which the ΔTm in data set [7] is -0.5 ° C; in data set [8], -2.5 ° C.

Take cyclo(C(FITC‑maleimide)KLIIF) [FITC-CKLIIF (SEQ ID NO 2)]: the “Activity as measured by a HIF-2 ELISA” value in [5] came to 0.77 µM.

For CRLLIW (cyclic analogue of cyclo-CRLLIF), the Kd in data set [2] came to 7.7 µM; in data set [4], 9.6 µM.

B2: CRLLI(4-MeO-F) (peptide)
peptide: cyclo(CRLLI[Tyr(Me)])
SMILES: CC[C@H](C)[C@@H]1NC(=O)[C@H](CC(C)C)NC(=O)[C@H](CC(C)C)NC(=O)[C@H](CCCNC(=N)N)NC(=O)[C@H](CS)NC(=O)[C@H](Cc2ccc(OC)cc2)NC1=O
notes: also called CRLLIX where X = 4-MeO-F
Take B2: the values for the IC50 in [1] and in data set [3] were 36.7 µM and 15.3 µM, respectively. In addition, the Kd in data set [2] is 10.8 µM; in [4], 4.5 µM.

B3: CRAIIF (peptide)
peptide: CRAIIF
notes: also called alanine scan peptide of CRVIIF, position 3 (V to A)
B3 came in with a concentration for half-maximal inhibition (IC50) in data set [9] of 51 µM.

As to cyclo(CRLLI[Phe(4-Me)]) (also called CRLLIX where X = 4-Me-F) [CRLLI(4-Me-F)], the figures for the IC50 in data set [1] and in data set [3] were 11.9 µM and 6.07 µM, respectively. The Kd in data set [2] was found to be 9.61 µM; in [6], 5.4 µM; in [10], 11.4 µM; in [4] it was 5.27 µM.

As for cyclo(CRLLI[Cha]) (also called CRLLIX where X = Cha) [CRLLI(Cha)], the values for the IC50 in data set [1] and in [3] were 25.5 µM and 19.8 µM, respectively. Also, the dissociation constant Kd in [2] amounted to 1.37 µM; in [6] it was 5.8 µM; in [10] it was 4.1 µM; in data set [4] it was 5.63 µM.

With cyclo(CRLLI[Phe(4-CN)]) (also called CRLLIX where X = 4-CN-F) [CRLLI(4-CN-F)], the 50% inhibitory concentration (IC50) in [1] was 44.2 µM; in data set [3] it was 6.27 µM. In addition, the dissociation constant (Kd) came to 10 µM in [2] and 9.46 µM in [4].

(Values after patent US20190033318A1 (UNIVERSITY OF SOUTHAMPTON, published 2019).)
